Data set [1] deals with β-catenin/Tcf-4 transcriptional activity. Description: TOP/FOP Luciferase reporter gene assay in SW480 cells. Type of data set: cell-based. As to the method:
The protocol used to measure the transcriptional activity of TCF/LEF-1 was described before (Morin et al., 1997). Briefly, cells were transfected with 500 ng of TCF/LEF-1 reporter (pTOP-FLASH), or control vector (pFOP-FLASH) and with 25 ng pCMV-Renilla. Luciferase activity was quantified using the Dual luciferase reporter assay system (Promega), and was normalized relative to the activity of Renilla.

Another data set has as its system ICAT. As to the kind of experiment: ICAT expression in SW480 cells (RT-QPCR, immunoblotting). Type of data set: cell-based, human. How it is done: (§1) 2.5 μg of total RNA was pretreated with DNAse RQ1 (Promega) for 30 min at 37° C. and used for reverse transcription with M-MLV reverse transcriptase (In vitrogen). Quantitative PCR was carried out using the LightCycler FastStart DNA MasterPlus SYBR Green I kit (Roche Diagnostics, Meylan, France), under the following conditions: Actin: denaturation during 10 min at 95° C., amplification for 50 cycles: 10 sec at 95° C., 6 sec at 58° C., 11 sec at 72° C. Melting curve: 0 sec at 95° C., 30 sec at 68° C., 0 sec at 95° C. and cooling was for 2 min at 40° C.: c-myc, ILK, chromogranin A and GAPDH amplification: denaturation during 10 min at 95° C., amplification for 50 cycles: 10 sec at 70° C., 6 sec at 58° C., 13 sec at 72° C. The melting curve was 0 sec at 95° C., 30 sec at 80° C., 0 sec at 95° C. and cooling was for 2 min at 40° C. Progastrin, Muc-2, ALP and ICAT amplification: denaturation during 10 min at 95° C., amplification during 50 cycles with: 10 sec at 70° C., 6 sec at 95° C., 11 sec at 72° C. The melting curve was 0 sec at 95° C., 30 sec at 80° C., 0 sec at 70° C. and cooling was for 2 min at 40° C. […]
(§2) Protein lysates, immunoprecipitations and immunoblotting were performed as described before (Hollande et al., 2003) Proteins were visualized using ECL Plus (Amersham Biosciences) and the bands were quantified by densitometry using ImageJ 1.32J (NIH, Bethesda, Md.).

Data set [2] has as its system SW480 cells. As to the kind of experiment: Differentiation and apoptosis of SW480 cells after transient siRNA transfection. It is filed as cell-based, human. As to the method:
The day before transfection, SW480 cells were seeded in 24-well plates (5×10^4 cells/well). Cells were transfected with 100 pmol of rhodamine tagged GAS-specific or β-galactosidase-specific […], and 5 μl/well of Exgen 500 (Euromedex), according to the manufacturer's instructions. 48 hr or 72 hr after transfection, cells were lysed (for immunoblotting and PCR) or fixed in 1% paraformaldehyde for immunostaining.
2.5 μg of total RNA was pretreated with DNAse RQ1 (Promega) for 30 min at 37° C. and used for reverse transcription with M-MLV reverse transcriptase (In vitrogen). Quantitative PCR was carried out using the LightCycler FastStart DNA MasterPlus SYBR Green I kit (Roche Diagnostics, Meylan, France), under the following conditions: Actin: denaturation during 10 min at 95° C., amplification for 50 cycles: 10 sec at 95° C., 6 sec at 58° C., 11 sec at 72° C. Melting curve: 0 sec at 95° C., 30 sec at 68° C., 0 sec at 95° C. and cooling was for 2 min at 40° C.: c-myc, ILK, chromogranin A and GAPDH amplification: denaturation during 10 min at 95° C., amplification for 50 cycles: 10 sec at 70° C., 6 sec at 58° C., 13 sec at 72° C. The melting curve was 0 sec at 95° C., 30 sec at 80° C., 0 sec at 95° C. and cooling was for 2 min at 40° C. Progastrin, Muc-2, ALP and ICAT amplification: denaturation during 10 min at 95° C., amplification during 50 cycles with: 10 sec at 70° C., 6 sec at 95° C., 11 sec at 72° C. The melting curve was 0 sec at 95° C., 30 sec at 80° C., 0 sec at 70° C. and cooling was for 2 min at 40° C. Primers used for amplification of selected genes were: GAPDH-sense: 5′[…]3′ (SEQ ID No 9) antisense: 5′[…]3′ (SEQ ID No 10); Actin-sense: 5′[…]3′ (SEQ ID No 11); antisense: 5′[…]3′ (SEQ ID No 12); ILK-sense: 5′[…]3′ (SEQ ID No 13); antisense: 5′ […]3′ (SEQ ID No 14); ICAT-sense: 5′[…]3′ (SEQ ID No 15); antisense: 5′[…]3′ (SEQ ID No 16); c-myc-sense: 5′[…]3′ (SEQ ID No 17); antisense: 5′[…]3′ (SEQ ID No 18); human progastrin-sense: 5′[…]3′ (SEQ ID No 19); antisense: 5′[…]3′ (SEQ ID No 20); Muc-2-sense: 5′[…]3′ (SEQ ID No 21); antisense: 5′[…]3′ (SEQ ID No 22); Alkaline Phosphatase-sense: 5′[…]3′ (SEQ ID No 23); antisense: 5′[…]3′ (SEQ ID No 24); Chromogranin A-sense: 5′[…]3′ (SEQ ID No 25); antisense: 5′[…]3′ (SEQ ID No 26).
(§3) Immunofluorescent staining was performed as described previously (Hollande et al., 2003) Slides were then observed using a laser scanning LEICA sp2 confocal microscope with a x40 oil immersion lens.

For data set [3], the system named is nuclear compartmentation of β-catenin and Tcf-4. As to the kind of experiment: Immunofluorescent staining of β-catenin and Tcf-4 in SW480 cells. To be noted: SW480/GAST(−) cells, 5 nM recombinant progastrin. It is filed as cell-based, human. As to the method: as §3
For data set [4], the system named is β-catenin/Tcf-4 and β-catenin/ICAT association. Description: Co-immunoprecipitation of dephosphorylated β-catenin with Tcf-4 and ICAT in SW480 cells. It is filed as cell-based, human. To be noted: SW480/GAST(−) cells treated with recombinant progastrin. As to the method: as §2
The next data set concerns Akt/PKB. As to the kind of experiment: Ser473 phosphorylation of Akt/PKB in SW480 cells (Western blotting). Type of data set: cell-based, human. To be noted: SW480/GAST(−) cells, 5 nM recombinant progastrin. As to the method: as §2
Data set [5] deals with Tcf-4 target genes (c-myc, cyclin D1, Sox-9 and claudin-1). As to the kind of experiment: Expression of Tcf-4 target genes in SW480/GAST(−) cells. Type of data set: cell-based, human. To be noted: progastrin-depleted SW480/GAST(−) cells, treatment with the recombinant peptide (5 nM, 72 h). As to the method: as §1, §2
The test system of a further data set is ILK. Description: ILK expression and immune complex kinase assay in SW480 cells. To be noted: SW480/GAST(−) cells, 5 nM recombinant progastrin. It is filed as cell-based, human. How it is done: as §2
The reaction was started by the addition of 25 μl of kinase buffer (50 mM Hepes pH 7.0, 1 mM MnCl2, 1 mM Na orthovanadate, 2 mM NaF, 5 μg Myelin Basic Protein (Sigma)) with 0.5 μg of ATP ([…], 1 μCi[γ-^32P]ATP) per tube, and incubated at 30° C. for 20 min. The reaction was terminated with the addition of 10 μl of 4× sample buffer. The tubes were centrifuged at 10,000 g for 1 min and the proteins were resolved on a 14% SDS-page gel. Phosphorylation of the substrate was visualized by autoradiography (Marotta et al., 2003).

For data set [6], the system named is SW480 cells. Description: Tumor formation of SW480 cells injected subcutaneously in BALB/c nude mice. Type of data set: in vivo, mouse. To be noted: SW480/GAST(−) cells stably expressing shRNA, subcutaneous injection in Balbc/nude mice, within 7 weeks, versus SW480/βgal(−). The source says:
Transfection of gastrin gene antisense and control cDNA into DLD1 cell lines was described in (Hollande et al., 2003). In order to generate progastrin shRNA, the following oligonucleotides were cloned into pSilencer vector (Ambion) and transfected in SW480 cells: sense: 5′-[…] TT-3′ (SEQ ID No 1) and antisense: 5′-[…] 3′ (SEQ ID No 2). β-galactosidase oligonucleotides used to generate control shRNA were: sense: 5′ […] 3′ (SEQ ID No 3); antisense 5′[…] 3′ (SEQ ID No 4). 5×10^4 cells/well were seeded and transfected 24 h later with 500 ng of pSilencer/progastrin-shRNA or pSilencer/β-galactosidase-shRNA, 50 ng of pcDNA-3, and 5 μl/well of Exgen 500 (Euromedex). Selection was performed with Neomycin (500 ng/μl).
In vivo experiments were performed following the French guidelines for experimental animal studies (Direction des Services Vétérinaires, Ministére de l'Agriculture, Agreement N^oB34-172-27) and fulfill the UKCCCR guidelines for the welfare of animals in experimental neoplasia. 2×10^6 cells were injected subcutaneously into 6-weeks-old athymic BALB/c-nu/nu (nude) mice. Tumor growth was followed regularly thereafter (Estimated tumor volume=(Length×width×thickness)/2).

The mark [7] stands for this setting: treatment of CRC cells with short gastrin forms or CCK-B receptor antagonist (FIG. S2).
The mark [8] stands for this setting: transient transfection with siRNA.
[9] abbreviates: amidated and glycine-extended gastrins.

Where no end group is shown, it is not given here.

With `Cc1cccc(NC(=O)N[C@@H]2N=C(c3ccccc3)c3ccccc3N(C)C2=O)c1` [L365, 260], the β-catenin/Tcf-4 activity entry in data set [1] (setting [7]) is recorded as “did not affect”.
Turning to `COc1cccc(-c2cc(=O)c3ccccc3o2)c1N` [PD98059], the ICAT expression entry in the data set on ICAT (SW480 cells, 1 μM PD98059) is given as “did not affect”. The β-catenin/Tcf-4 activity result in data set [1] (SW480 cells, 1 μM PD98059 (ERK1/2 pathway inhibition)) was “did not affect”.
For `CC(C)(C)n1nc(-c2ccc(Cl)cc2)c2c(N)ncnc21` [PP2], the ICAT expression entry with ICAT (SW480 cells, 10 μM PP2) is “did not affect”. Further, the β-catenin/Tcf-4 activity entry in data set [1] (SW480 cells, 10 μM PP2 (Src pathway inhibition)) is given as “did not affect”.
As to “GAST-specific siRNA oligonucleotides: rhodamine-tagged siRNA directed against the human GAST gene; siRNAs hPG sense 5′-GAAGAAGCCUAUGGAUGGATT-3′ (SEQ ID No 27), antisense SEQ ID No 28 (antisense UCCAUCCAUAGGCUUCUUCTT; rhodamine-tagged siRNA, tag position not given here)”, in the data set on SW480 cells [2] (setting [8]), the caspase-3 activation entry is given as “detection of caspase-3 activation” and the “expression of genes encoding chromogranin A or enterocyte-specific alkaline phosphatase” value is on record as “without detectable alterations”. Also, in the data set with SW480 cells [2] (transient transfection with siRNA, versus β-galactosidase siRNA), the “expression of the goblet cell-specific gene Muc-2” value is recorded as “significant induction”.
On to “amidated gastrin17: COOH terminally amidated gastrin, maturation product of progastrin (QGPWLEEEEEAYGWMDF-NH2; ends and bridges not checked) [reference compound]”, for which the β-catenin/Tcf-4 activity result in data set [1] (setting [7]) is “did not affect”. Besides, the “differentiation and apoptosis phenotypes of GAST siRNA-transfected cells” value (“differentiation and apoptosis phenotypes” for short) in the data set with SW480 cells [2] (setting [9]) is on record as “had no effect”.

B1: recombinant progastrin: full-length progastrin (1-80) prohormone encoded by the GAST gene; recombinant peptide or secreted by CRC cells (protein)
chain: SWKPRSQQPDAPLGTGANRDLELPWLEQQGPASHHRRQLGPQGPPHLVADPSKKQGPWLEEEEEAYGWMDFGRRSAEDEN
Regarding B1, the “nuclear compartmentation of β-catenin and Tcf-4” value in data set [3] is recorded as “partially restored”. In addition, the “binding partner of β-catenin (Tcf-4 versus ICAT)” value in data set [4] is “preferentially bound to Tcf-4”. Also, the ICAT expression result in the data set on ICAT (SW480/GAST(−) cells, 5 nM recombinant progastrin) was “De novo repression”. Moreover, in the data set with Akt/PKB, the “serine 473-phosphorylation of Akt/PKB” value is given as “reinstated”. The “β-catenin/Tcf-4 transcriptional activity (TOP/FOP luciferase reporter)” value in data set [1] (SW480/GAST(−) clones, 5 nM recombinant progastrin, 72 h) was “restore a strong level of transcription”. In addition, the “expression of Tcf-4 target genes (c-myc, cyclin D1, Sox-9 and claudin-1)” value in data set [5] is given as “significantly stimulated”. The “differentiation and apoptosis phenotypes” value with SW480 cells [2] (recombinant progastrin for 48 h) was “reversed”. In the data set with ILK, the “decrease of expression and activity of ILK” value is given as “partially reversed”.

B2: glycine-extended gastrin17: glycine-extended gastrin, one of the products of progastrin maturation (peptide)
peptide: B1 chain
On to B2, for which, in [1] (setting [7]), the β-catenin/Tcf-4 activity result is reported as “did not affect”. Moreover, the “differentiation and apoptosis phenotypes” value in the data set with SW480 cells [2] (setting [9]) is given as “had no effect”.

B3: short hairpin RNA (shRNA), directed against the GAST gene: progastrin shRNA, oligonucleotides SEQ ID No 1 and SEQ ID No 2 cloned into pSilencer vector, stably expressed in SW480 cells (nucleic acid)
DNA 1: GAAGAAGCCTATGGATGGATTCAAGAGAAGGTAGGTATCCGAAGAAGTTTTTT
DNA 2: AATTAAAAAACTTCTTCGGATACCTACCTTCTCTTGAATCCATCCATAGGCTTCTTCGGCC
Consider B3, for which the “ability to form tumors” value in the data set on SW480 cells [6] is listed as “greatly reduced”.

The values are drawn from US20100209426A1, “INHIBITORS OF PROGASTRIN-INDUCED REPRESSION OF ICAT FOR TREATING AND/OR PREVENTING COLORECTAL CANCER, ADENOMATOUS POLYPOSIS OR METASTASIS DISPLAYING PROGASTRIN-SECRETING CELLS AND CELLS IN WHICH THE BETA-CATENIN/TCF-MEDIATED TRANSCRIPTIONAL PATHWAY IS CONSTITUTIVELY ACTIVE” (INSERM (INSTITUT NATIONAL DE LA SANTE ET DE LA REC HERCHE …, priority 2006, published 2010).
